Experimental data reported in the Human Domainome abundance scans (Beltran et al. 2025).
± gives the uncertainty stated by the source.

Assay: abundance fitness (aPCA) (normalised: wild type 0, dead -1); higher = more abundant; growth selection in yeast, the domain comes from the species named
Conditions: Homo sapiens

Substance | abundance fitness
Lipoamide acyltransferase component of branched-chain alpha-keto acid dehydrogenase complex, mitochondrial G195E, P11182 | -0.639 ± 0.073
Lipoamide acyltransferase component of branched-chain alpha-keto acid dehydrogenase complex, mitochondrial G195H, P11182 | -0.7 ± 0.1
Lipoamide acyltransferase component of branched-chain alpha-keto acid dehydrogenase complex, mitochondrial G195I, P11182 | -0.867 ± 0.15
Lipoamide acyltransferase component of branched-chain alpha-keto acid dehydrogenase complex, mitochondrial G195K, P11182 | -0.566 ± 0.13
Lipoamide acyltransferase component of branched-chain alpha-keto acid dehydrogenase complex, mitochondrial G195L, P11182 | -0.927 ± 0.055
Lipoamide acyltransferase component of branched-chain alpha-keto acid dehydrogenase complex, mitochondrial G195M, P11182 | -0.793 ± 0.16
Lipoamide acyltransferase component of branched-chain alpha-keto acid dehydrogenase complex, mitochondrial G195N, P11182 | -0.611 ± 0.12
Lipoamide acyltransferase component of branched-chain alpha-keto acid dehydrogenase complex, mitochondrial G195P, P11182 | -0.682 ± 0.07
Lipoamide acyltransferase component of branched-chain alpha-keto acid dehydrogenase complex, mitochondrial G195Q, P11182 | -0.483 ± 0.067
Lipoamide acyltransferase component of branched-chain alpha-keto acid dehydrogenase complex, mitochondrial G195R, P11182 | -0.591 ± 0.042
Lipoamide acyltransferase component of branched-chain alpha-keto acid dehydrogenase complex, mitochondrial G195S, P11182 | -0.444 ± 0.08
Lipoamide acyltransferase component of branched-chain alpha-keto acid dehydrogenase complex, mitochondrial G195T, P11182 | -0.587 ± 0.066
Lipoamide acyltransferase component of branched-chain alpha-keto acid dehydrogenase complex, mitochondrial G195V, P11182 | -0.702 ± 0.059
Lipoamide acyltransferase component of branched-chain alpha-keto acid dehydrogenase complex, mitochondrial G195W, P11182 | -1.25 ± 0.11
Lipoamide acyltransferase component of branched-chain alpha-keto acid dehydrogenase complex, mitochondrial G195Y, P11182 | -0.977 ± 0.35
Lipoamide acyltransferase component of branched-chain alpha-keto acid dehydrogenase complex, mitochondrial G198A, P11182 | -0.517 ± 0.044
Lipoamide acyltransferase component of branched-chain alpha-keto acid dehydrogenase complex, mitochondrial G198C, P11182 | -0.666 ± 0.14
Lipoamide acyltransferase component of branched-chain alpha-keto acid dehydrogenase complex, mitochondrial G198D, P11182 | -0.341 ± 0.11

Substance | abundance fitness
Lipoamide acyltransferase component of branched-chain alpha-keto acid dehydrogenase complex, mitochondrial G198E, P11182 | -0.506 ± 0.052
Lipoamide acyltransferase component of branched-chain alpha-keto acid dehydrogenase complex, mitochondrial G198F, P11182 | -0.771 ± 0.25
Lipoamide acyltransferase component of branched-chain alpha-keto acid dehydrogenase complex, mitochondrial G198H, P11182 | -0.267 ± 0.062
Lipoamide acyltransferase component of branched-chain alpha-keto acid dehydrogenase complex, mitochondrial G198I, P11182 | -1.24 ± 0.23
Lipoamide acyltransferase component of branched-chain alpha-keto acid dehydrogenase complex, mitochondrial G198K, P11182 | -0.406 ± 0.18
Lipoamide acyltransferase component of branched-chain alpha-keto acid dehydrogenase complex, mitochondrial G198M, P11182 | -0.57 ± 0.1
Lipoamide acyltransferase component of branched-chain alpha-keto acid dehydrogenase complex, mitochondrial G198P, P11182 | -0.776 ± 0.097
Lipoamide acyltransferase component of branched-chain alpha-keto acid dehydrogenase complex, mitochondrial G198Q, P11182 | -0.301 ± 0.051
Lipoamide acyltransferase component of branched-chain alpha-keto acid dehydrogenase complex, mitochondrial G198R, P11182 | -0.514 ± 0.044
Lipoamide acyltransferase component of branched-chain alpha-keto acid dehydrogenase complex, mitochondrial G198S, P11182 | -0.412 ± 0.04
Lipoamide acyltransferase component of branched-chain alpha-keto acid dehydrogenase complex, mitochondrial G198T, P11182 | -0.647 ± 0.078
Lipoamide acyltransferase component of branched-chain alpha-keto acid dehydrogenase complex, mitochondrial G198V, P11182 | -1.04 ± 0.085
Lipoamide acyltransferase component of branched-chain alpha-keto acid dehydrogenase complex, mitochondrial G198W, P11182 | -0.982 ± 0.16
Lipoamide acyltransferase component of branched-chain alpha-keto acid dehydrogenase complex, mitochondrial G214A, P11182 | 0.014 ± 0.054
Lipoamide acyltransferase component of branched-chain alpha-keto acid dehydrogenase complex, mitochondrial G214C, P11182 | -0.066 ± 0.057
Lipoamide acyltransferase component of branched-chain alpha-keto acid dehydrogenase complex, mitochondrial G214D, P11182 | -0.041 ± 0.071
Lipoamide acyltransferase component of branched-chain alpha-keto acid dehydrogenase complex, mitochondrial G214E, P11182 | 0.135 ± 0.12
